For test [1], the target named is PE-PilA fusion protein (version used in solution and ELISA experiments) (nontypeable Haemophilus influenzae strain 772 | nontypeable Haemophilus influenzae strain 86-028NP). The test can be described thus: AUC; sedimentation velocity, 25,000 rpm, AN-60Ti rotor, 15°C, absorbance at 280 nm, c(S) model in Sedfit.
Test [2] concerns the target protein E (PE), recombinant, isolated (nontypeable Haemophilus influenzae strain 772). Described as above.

In the case of “PE-PilA fusion protein (version used in solution and ELISA experiments)”, the stoichiometry N in test [1] was determined as 2. In the case of “protein E (PE), recombinant, isolated (domain or fragment)”, the stoichiometry N in test [2] amounted to 2.

The values above are taken from paper PMC6652776.
